Data taken from patent publication US20220332804A1 (CSL INNOVATION, published 2022).

How the values were obtained:
Test in all cases: SPR, KD relative to WT C2;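 note: biacore SPR at 37 °C, anti-C2 mAbs captured on anti-human IgG chips with alanine or serine point mutants of C2 as analyte, KD from 1:1 fit compared with wild-type C2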
[1] = target: T1, human complement C2 (wild type) (human, UniProt P06681 21-752)
T1 construct: Full-length human C2 (NP_000054) with C-terminal 8x His tag, secreted from Expi293F cells and purified from the supernatant; also called WT; huC2
T1 sequence: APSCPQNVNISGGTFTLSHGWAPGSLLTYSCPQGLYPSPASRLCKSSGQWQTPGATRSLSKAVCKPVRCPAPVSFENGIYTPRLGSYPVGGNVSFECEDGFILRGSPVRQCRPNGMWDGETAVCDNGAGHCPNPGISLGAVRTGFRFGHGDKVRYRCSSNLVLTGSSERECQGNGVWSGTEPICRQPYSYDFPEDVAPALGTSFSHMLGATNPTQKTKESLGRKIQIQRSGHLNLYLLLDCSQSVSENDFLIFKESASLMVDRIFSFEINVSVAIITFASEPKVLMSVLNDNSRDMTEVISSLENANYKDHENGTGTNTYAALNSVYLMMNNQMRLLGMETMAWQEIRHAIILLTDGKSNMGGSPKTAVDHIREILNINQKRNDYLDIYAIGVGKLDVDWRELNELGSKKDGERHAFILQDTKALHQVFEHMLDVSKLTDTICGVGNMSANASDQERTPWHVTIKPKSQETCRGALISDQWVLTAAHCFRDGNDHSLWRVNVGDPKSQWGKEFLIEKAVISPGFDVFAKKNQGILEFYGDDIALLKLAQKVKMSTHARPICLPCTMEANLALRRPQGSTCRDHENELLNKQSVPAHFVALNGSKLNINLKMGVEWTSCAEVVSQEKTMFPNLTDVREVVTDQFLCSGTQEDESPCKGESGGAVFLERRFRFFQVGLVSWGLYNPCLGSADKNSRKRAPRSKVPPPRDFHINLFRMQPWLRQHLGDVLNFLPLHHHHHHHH

[2] = target: T2, human C2 T442A (human, UniProt P06681 21-752)
T2 sequence: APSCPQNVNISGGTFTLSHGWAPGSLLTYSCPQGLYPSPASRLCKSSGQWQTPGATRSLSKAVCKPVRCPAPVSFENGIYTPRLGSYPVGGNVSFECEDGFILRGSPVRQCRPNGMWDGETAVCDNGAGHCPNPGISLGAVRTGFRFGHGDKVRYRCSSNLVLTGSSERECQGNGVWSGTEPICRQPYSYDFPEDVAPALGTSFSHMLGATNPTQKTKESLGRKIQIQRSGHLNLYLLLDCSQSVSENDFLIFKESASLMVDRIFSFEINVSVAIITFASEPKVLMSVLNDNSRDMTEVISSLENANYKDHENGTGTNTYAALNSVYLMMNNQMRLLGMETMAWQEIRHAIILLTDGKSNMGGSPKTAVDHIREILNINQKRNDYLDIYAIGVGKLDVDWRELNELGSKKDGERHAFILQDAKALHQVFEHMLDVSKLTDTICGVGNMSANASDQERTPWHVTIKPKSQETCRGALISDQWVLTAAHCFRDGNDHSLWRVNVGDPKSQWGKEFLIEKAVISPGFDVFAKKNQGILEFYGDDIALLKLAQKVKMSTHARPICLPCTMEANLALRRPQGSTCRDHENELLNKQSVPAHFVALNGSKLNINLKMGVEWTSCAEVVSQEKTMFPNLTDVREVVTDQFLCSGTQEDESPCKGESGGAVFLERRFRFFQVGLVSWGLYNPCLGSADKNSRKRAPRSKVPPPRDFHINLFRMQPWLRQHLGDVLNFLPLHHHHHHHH

[3] = target: T3, human C2 N403A (human, UniProt P06681 21-752)
T3 sequence: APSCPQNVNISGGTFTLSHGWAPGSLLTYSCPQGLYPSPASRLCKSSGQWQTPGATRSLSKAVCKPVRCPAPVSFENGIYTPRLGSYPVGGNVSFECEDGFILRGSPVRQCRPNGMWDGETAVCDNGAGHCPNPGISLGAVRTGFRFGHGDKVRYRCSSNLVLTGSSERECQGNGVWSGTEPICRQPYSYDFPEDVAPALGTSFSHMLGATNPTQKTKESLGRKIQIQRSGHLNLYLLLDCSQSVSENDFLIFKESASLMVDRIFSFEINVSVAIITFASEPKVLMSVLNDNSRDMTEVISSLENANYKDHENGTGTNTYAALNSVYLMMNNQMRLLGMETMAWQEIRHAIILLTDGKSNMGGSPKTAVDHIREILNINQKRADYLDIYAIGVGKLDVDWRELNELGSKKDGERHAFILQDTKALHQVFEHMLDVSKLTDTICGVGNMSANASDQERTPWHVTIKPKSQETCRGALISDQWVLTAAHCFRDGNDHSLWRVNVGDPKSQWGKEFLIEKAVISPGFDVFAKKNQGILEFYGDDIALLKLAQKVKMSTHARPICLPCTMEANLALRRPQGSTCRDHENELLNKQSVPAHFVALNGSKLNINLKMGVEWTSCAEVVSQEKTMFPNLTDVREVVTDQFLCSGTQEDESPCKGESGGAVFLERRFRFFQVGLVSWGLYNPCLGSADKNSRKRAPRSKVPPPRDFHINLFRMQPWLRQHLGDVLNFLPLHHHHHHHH

B1: RF16-242 (antibody, human IgG4 S228P, lambda, V domains shown)
VH: EVQLLQSGAEVKKPGESLKISCKGSGYSFTSYWIGWVRQMPGKGLEWMGIIYPGDSDTRYSPSFQGQVTISADKSISTAYLQWSSLKASDTAMYYCARRGHYGDYFDYWGQGTLVTVSS
VL: SYELTQPPSVSVSPGQTARITCSGDALPKKYAYWYHQKSGQAPVLVIYEDRRRPSEIPERFSGSSSGTMATLTITGAQVEDEGVYFCYSRDRAGNQRVFGGGTQLTVLG
notes: pH-dependent anti-C2 antibody from a phage display library
[1]
  Fold diff: 1 fold
[2]
  Fold diff: 3 fold
[3]
  Fold diff: 1 fold
